How the values were obtained:
[1] = molecular target: CD74 on CD74 positive SU-DHL-6 cells, P04233; test: cell-based or functional assay
[2] = molecular target: CD74 on CD74 positive SU-DHL-6 cells (UniProt P04233); test: cell-based or functional assay
CD74 on CD74 positive SU-DHL-6 cells, sequence (P04233 whole entry): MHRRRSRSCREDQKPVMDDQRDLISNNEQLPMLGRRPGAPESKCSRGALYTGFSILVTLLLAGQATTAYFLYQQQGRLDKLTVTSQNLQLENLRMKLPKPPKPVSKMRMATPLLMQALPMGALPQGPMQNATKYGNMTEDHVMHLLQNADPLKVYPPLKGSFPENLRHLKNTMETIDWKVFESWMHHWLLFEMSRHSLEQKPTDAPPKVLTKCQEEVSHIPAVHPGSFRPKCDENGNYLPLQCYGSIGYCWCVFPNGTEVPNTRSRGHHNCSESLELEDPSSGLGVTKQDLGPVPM

CD74 on CD74 positive SU-DHL-6 cells, P04233, sequence (P04233 whole entry): as above

B1: 1193-H04b (scFv)
scFv: EVQLLESGGGLVQPGGSLRLSCAASGFTFTSSWMSWVRQAPGKGLEWVGIINGYNGITYYADSVKGRFTISRDNSKNTLYLQMNSLRAEDTAVYYCAKPSAPGARRFDYWGQGTLVTVSSGGGGSGGGGSGGGGSEIVLTQSPGTLSLSPGEATLSCRASQSVSSSYLAWYQQRPGQAPRLLIYGASSRATGIPDRFSGSGSGTDFTLTISRLEPEDFAVYYCQQHYTTPPTFGQGTKVEIK
- 2nd ADC Cell Killing IC50 [1]: 14.8 nM

B2: 1337-A10 light chain paired with VH 1251-A06 (SEQ ID NO: 236) (Fab, V domains shown)
VH: QVQLVESGGGVVQPGRSLRLSCAASGFDFSSYGMHWVRQAPDKGLEWVAVIWDDGSDRYYADSVKGRFTISRDNSKNTLYLQMNSLRAEDTAVYYCARGGTRVLGAIHGTDVWGQGTTVTVSS
VL: DIQMTQSPSSLSASVGDRVTITCRASQGISSWVAWYQQKPEKAPKSLIYGSSRLQSGVPSRFSGSGSGTDFTLTISSLQPEDFATYYCQQYNTYPLTFGGGTKVEIK
- 2nd ADC Cell Killing IC50 [1]: 0.006 nM

B3: 1251-A02 heavy chain paired with VL SEQ ID NO: 272 (antibody, V domains shown)
VH: QVQLVESGGGVVQPGRSLRLSCAASGFAFSDHGMHWVRQAPDKGLEWVAVIWYDGSHKIYADSVKGRFTISRDNSKNTLYLQMNSLRAEDTAVYYCARGGSLAGGAVYGTDVWGQGTTVTVSS
VL: DIQMTQSPSSLSASVGDRVTITCRASQGISSWLAWYQQKPEKAPKSLIYAASSLQSGVPSRFSGSGSGTDFTLTISSLQPEDFATYYCQQYNSYPLTFGGGTKVEIK
- 2nd ADC Cell Killing IC50 [1]: 0.009 nM

B4: 1447-E08 scFv-Fc (Fc fusion, part only; not given: Fc portion, part only)
chain, part: EVQLLESGGGLVQPGGSLRLSCAASGFTFNDTDMSWVRQAPGKGLEWVGMINGAGGASFYADSVRGRFTISRDNSKNTLYLQMNSLRAEDTAVYYCAKFENQWEVTFDYWGQGTLVTVSSGGGGSGGGGSGGGGSEIVLTQSPGTLSLSPGERATLSCRASQRVAGIDLSWYQQKPGQAPRLLIYGASSRATGIPDRFSGSGSGTDFTLTISRLEPEDFAVYYCQQHNTTPPTFGQGTKVEIK
- 2nd ADC Cell Killing IC50 [2]: 2.56 nM

B5: 1447-G01 scFv-Fc (Fc fusion, part only; not given: Fc portion, part only)
chain, part: EVQLLESGGGLVQPGGSLRLSCAASGFTFNTSDMSWVRQAPGKGLEWVGIINGSGGATNYADSVKGRFTISRDNSKNTLYLQMNSLRAEDTAVYYCAKYENEMEVSMDYWGQGTLVTVSSGGGGSGGGGSGGGGSEIVLTQSPGTLSLSPGERATLSCRASQSVSSRELGWYQQKPGQAPRLLIYGASSRATGIPDRFSGSGSGTDFTLTISRLEPEDFAVYYCQQQCSWPPTFGQGTKVEIK
- 2nd ADC Cell Killing IC50 [2]: 0.65 nM
